According to patent publication US11643467 (dated 2023):

Experiments:
Experiment in all cases: ELISA
[1] = target: T1, FGFR3-Fc (human, UniProt P22607)
T1 chain: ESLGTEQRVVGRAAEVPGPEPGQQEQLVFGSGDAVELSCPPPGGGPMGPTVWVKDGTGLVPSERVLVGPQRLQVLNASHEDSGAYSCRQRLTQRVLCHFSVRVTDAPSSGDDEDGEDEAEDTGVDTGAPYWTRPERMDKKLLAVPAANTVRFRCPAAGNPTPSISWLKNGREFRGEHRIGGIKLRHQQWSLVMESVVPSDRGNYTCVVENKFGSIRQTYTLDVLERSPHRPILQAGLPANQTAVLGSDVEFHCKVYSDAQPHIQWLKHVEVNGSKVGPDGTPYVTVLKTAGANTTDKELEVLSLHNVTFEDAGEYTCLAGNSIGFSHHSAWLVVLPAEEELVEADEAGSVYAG

[2] = target: FGFR2-Fc (human, UniProt P21802)
[3] = target: T2, FGFR1-Fc (human, UniProt P11362)
T2 chain: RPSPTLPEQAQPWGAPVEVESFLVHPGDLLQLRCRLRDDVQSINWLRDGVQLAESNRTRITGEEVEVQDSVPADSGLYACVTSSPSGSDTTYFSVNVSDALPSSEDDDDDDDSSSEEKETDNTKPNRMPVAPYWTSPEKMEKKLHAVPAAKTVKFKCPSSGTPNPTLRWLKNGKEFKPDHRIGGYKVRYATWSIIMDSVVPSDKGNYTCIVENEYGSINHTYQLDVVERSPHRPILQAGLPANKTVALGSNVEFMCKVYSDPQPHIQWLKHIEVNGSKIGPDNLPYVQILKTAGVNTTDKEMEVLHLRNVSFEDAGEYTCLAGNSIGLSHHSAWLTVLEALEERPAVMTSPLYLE

Measured: binding result

Chain of FGFR2-Fc (P21802 22-377): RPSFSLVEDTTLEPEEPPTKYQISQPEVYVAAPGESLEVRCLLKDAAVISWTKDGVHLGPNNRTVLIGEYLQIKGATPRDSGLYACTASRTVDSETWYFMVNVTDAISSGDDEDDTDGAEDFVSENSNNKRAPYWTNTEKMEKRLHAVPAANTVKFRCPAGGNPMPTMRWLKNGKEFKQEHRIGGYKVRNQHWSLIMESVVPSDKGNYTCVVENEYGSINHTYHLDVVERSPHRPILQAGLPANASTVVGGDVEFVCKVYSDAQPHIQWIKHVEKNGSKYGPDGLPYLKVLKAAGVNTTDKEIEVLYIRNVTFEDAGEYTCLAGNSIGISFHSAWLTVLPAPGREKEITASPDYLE

B1: ch3B6 (antibody, V domains shown)
VH: EVQLVESGGGLVQPGRSLKLSCAASGFTFSNYYMAWVRQAPKKGLEWVATINPSGTRTYYPDSVKGRFTLSRDSAKSSLYLQMNSLKSEDTATFYCARLYNNYAFDYWGQGVMVTVSS
VL: DVQMTQSPALAVSPGERVSISCRASESVSTLMHWYQQKPGQQPKLLIYGTSNLESGVPARFSGSGSGTDFTLNIDPVEADDTATYFCQQSWNDPPTFGGGTKLELK
no binding: all assays above
